Entries after “also recorded” stand apart in the source; their conditions may differ. No end group written: not given here.
Key:
LGR8 (RXFP2) = LGR8 (RXFP2) (Homo sapiens, UniProt Q8WXD0); test: ACEA RT-CES cell impedance, LGR8 transfected CHO-K1 cells; assay type: cell-based; parameters: expressed in transfected cells; host or cells: CHO-K1 (transient); conditions: P74C13V 10 uM, P59C13V 10 uM, H2 Relaxin 1 uM, FIG. 14
Source text: (§1) ACEA RT-CES screen is a noninvasive and label-free assay for GPCRs that can be used with both engineered and nonengineered cell lines. The assay is based on using cell-electrode impedance to measure minute changes in cellular morphology as a result of ligand-dependent GPCR activation and is described in Naichen Yu, et al., Anal. Chem., 78 (1), 35-43, 2006. 10.1021/ac051695v S0003-2700(05)01695-1. The Rho family of small GTPases, which include Rho, Rac, and CDC42, are well-characterized effectors of oncogenes, growth factor and adhesion-mediated signaling pathways and are not classically thought of as being key effectors for GPCRs. Rho family GTPases participate in a number of cellular processes, the main one being regulation and maintenance of specific structures within the actin cytoskeleton framework. […] The current view of the actin cytoskeleton is that of a dynamic and plastic system that is a reflection and manifestation of the intracellular signaling and not simply a static structure designed to maintain cellular architecture. Since GPCRs couple to the actin cytoskeletal network and induce very defined morphological changes, it is possible to harness this information as a functional and biologically relevant readout for GPCRs.
ACEA biosciences; has designed electronic cell sensor arrays embedded in the bottom of the well of microtiter plates that are capable of measuring minute changes in cell morphology. The electronic sensors measure changes in cell-substrate impedance as a result of the disruption of the ionic environment due to the presence of cell and cell morphology dynamics. The main advantages offered by using cell-substrate impedance and cell morphology as a readout are that both exogenously expressed and endogenous receptors can be assayed without the need for engineering the cell with promiscuous G proteins and reporters or labeling the cells with dyes. In addition, since the readout is noninvasive, multiple stimulations with the same ligand or different ligands can be performed to assess events such as desensitization and receptor cross-talk. […]

LGR7 (RXFP1) = target: T1, LGR7 (RXFP1) (Homo sapiens, UniProt Q9HBX9); test: ACEA RT-CES cell impedance, LGR7 transfected CHO-K1 cells; assay type: cell-based; parameters: expressed in transfected cells; host or cells: CHO-K1 (transient); conditions: for effect on cell impedance (normalized cell index): P74C13V 10 uM, H2 Relaxin 1 uM, FIG. 13; for dose response of normalized cell index: end point of the experiment, FIG. 16-19; for affinity to LGR7 compared with other ligands: from cell impedance dose response
T1 sequence (Q9HBX9 1-757): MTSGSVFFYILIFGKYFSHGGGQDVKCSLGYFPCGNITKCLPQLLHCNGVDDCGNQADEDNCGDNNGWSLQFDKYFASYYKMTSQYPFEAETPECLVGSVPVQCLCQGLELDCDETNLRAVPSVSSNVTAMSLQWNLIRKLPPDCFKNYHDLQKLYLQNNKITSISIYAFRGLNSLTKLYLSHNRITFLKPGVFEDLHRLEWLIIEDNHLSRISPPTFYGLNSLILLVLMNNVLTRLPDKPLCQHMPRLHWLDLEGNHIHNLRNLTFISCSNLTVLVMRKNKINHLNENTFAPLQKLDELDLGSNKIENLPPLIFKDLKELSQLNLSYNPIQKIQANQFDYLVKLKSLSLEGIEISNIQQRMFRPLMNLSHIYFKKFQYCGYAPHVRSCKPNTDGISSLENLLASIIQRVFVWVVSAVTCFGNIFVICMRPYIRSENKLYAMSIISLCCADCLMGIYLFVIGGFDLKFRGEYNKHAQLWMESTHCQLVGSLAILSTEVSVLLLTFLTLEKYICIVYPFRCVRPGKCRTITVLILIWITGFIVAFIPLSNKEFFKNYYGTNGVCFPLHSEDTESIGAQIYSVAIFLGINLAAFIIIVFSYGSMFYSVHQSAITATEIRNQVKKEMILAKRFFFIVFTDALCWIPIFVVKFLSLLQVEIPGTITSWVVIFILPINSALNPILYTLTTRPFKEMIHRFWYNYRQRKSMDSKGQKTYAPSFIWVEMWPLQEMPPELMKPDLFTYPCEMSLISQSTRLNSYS
Source text: as §1
ACEA biosciences; has designed electronic cell sensor arrays embedded in the bottom of the well of microtiter plates that are capable of measuring minute changes in cell morphology. The electronic sensors measure changes in cell-substrate impedance as a result of the disruption of the ionic environment due to the presence of cell and cell morphology dynamics. The main advantages offered by using cell-substrate impedance and cell morphology as a readout are that both exogenously expressed and endogenous receptors can be assayed without the need for engineering the cell with promiscuous G proteins and reporters or labeling the cells with dyes. In addition, since the readout is noninvasive, multiple stimulations with the same ligand or different ligands can be performed to assess events such as desensitization and receptor cross-talk. Finally, another major aspect of using cell-substrate impedance and cell morphology as a readout is that potentially all GPCRs, regardless of the signaling pathways, can be functionally monitored.
Peptides were synthesized by the solid phase peptide synthesis (SPPS) method, cleaved from the resin, and purified by RP-HPLC unless stated otherwise. The peptide's identity was verified by mass spectrometry. Final purity of peptide was >90% as measured by RP-HPLC. Peptides were diluted in Water (DDW—high purity) containing 0.1% BSA. In some cases peptides were dissolved in Tris-HCl buffer (pH8.2). In other cases either the addition of 1% DMSO or a brief sonication was required. All plates were stored at −80 C until use.
Cells: CHOk1 cell-line (ATCC CCL-61). Cells were maintained and propagated in F-12 HAM nutrient mix (Gibco. Cat# 21765-029) supplemented with 10% HI-FBS (Biological Ind. Cat#04-121-1), 2.5 mL of 200 mm L-Glutamine in Saline Solution (Biological Ind. Cat#03-020-1), 5 mL of Penicillin-Streptomycin Solution 10000/mL Penicillin G & 10 mg/mL Streptomycin Sulfate (Biological Ind. Cat#03-031-1).
One day before the transfection 2×10^6 CHO-k1 cells were plated in T75 flask containing 10 mL of complete growth medium. On the transfection date, FUGENE6 transfection reagent was warmed to ambient temperature by 15 minutes incubation at room temperature and mixed prior to use by vortex.
The transfected DNA mix was prepared in another sterile microfuge tube; Total of 2 μg plasmid DNA mixture which is composed of […] of the target GPCR plasmid and of 2 μg of pIRES plasmid carrying eGFP reporter gene.
The plasmids DNA mixture was then added to the transfection reagent tube and incubated 35 min at RT with gently tapping once every 5 minutes to mix the contents. The DNA-FuGene complex was added drop wise to flask and spread by gentle swirling. […]

Sequence of LGR8 (RXFP2) (Q8WXD0 whole entry): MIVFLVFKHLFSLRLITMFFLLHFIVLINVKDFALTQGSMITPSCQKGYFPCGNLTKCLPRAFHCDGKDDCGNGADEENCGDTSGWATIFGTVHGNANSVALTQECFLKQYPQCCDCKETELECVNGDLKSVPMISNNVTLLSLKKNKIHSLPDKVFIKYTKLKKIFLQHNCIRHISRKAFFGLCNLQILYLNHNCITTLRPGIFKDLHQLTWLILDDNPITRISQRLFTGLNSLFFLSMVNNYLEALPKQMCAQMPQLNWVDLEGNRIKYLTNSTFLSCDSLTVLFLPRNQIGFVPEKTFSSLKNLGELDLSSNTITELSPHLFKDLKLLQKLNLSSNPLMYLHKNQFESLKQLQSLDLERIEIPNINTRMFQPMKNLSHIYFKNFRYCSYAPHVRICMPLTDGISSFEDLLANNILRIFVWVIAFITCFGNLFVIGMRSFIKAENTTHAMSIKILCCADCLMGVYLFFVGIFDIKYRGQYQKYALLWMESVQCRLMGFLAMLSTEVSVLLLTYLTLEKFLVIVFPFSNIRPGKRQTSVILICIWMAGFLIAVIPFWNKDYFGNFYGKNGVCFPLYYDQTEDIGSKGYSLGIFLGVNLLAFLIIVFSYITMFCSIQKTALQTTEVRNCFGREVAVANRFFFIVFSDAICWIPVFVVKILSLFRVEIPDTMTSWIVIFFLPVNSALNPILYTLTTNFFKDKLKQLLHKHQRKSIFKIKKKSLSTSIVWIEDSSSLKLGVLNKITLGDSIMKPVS

Substance: H2 Relaxin: H2 Relaxin (ACS), positive control, known ligand of LGR7 (RXFP1) [reference compound]
- effect on cell impedance (normalized cell index) (LGR8 (RXFP2)): strong cellular effect
- effect on cell impedance (normalized cell index) (LGR7 (RXFP1)): capable of activating a cellular response
- dose response of normalized cell index (LGR7 (RXFP1)): clear dose dependent activation

Substance: GQKGQVGPPGAAVRRAYAAFSV [Peptide P59C13V]
- effect on cell impedance (normalized cell index) (LGR8 (RXFP2)): no significant effect as compared to BSA
- dose response of normalized cell index (LGR7 (RXFP1)): moderate dose response for the high concentrations; also recorded: mild dose dependent activation
- affinity to LGR7 compared with other ligands (LGR7 (RXFP1)): significantly lower than that of H2 Relaxin or P74C13V

Substance: AYAAFSV-Amide (AYAAFSV-NH2) [Peptide P59-S-Amide]
- dose response of normalized cell index (LGR7 (RXFP1)): moderate dose response for the high concentrations; also recorded: no dose response was demonstrated

Substance: GQKGQVGPPGAAVRRAYAAFSVGRRAYAAFSV-OH [Peptide P74C13V]
- effect on cell impedance (normalized cell index) (LGR8 (RXFP2)): strong cellular effect
- effect on cell impedance (normalized cell index) (LGR7 (RXFP1)): stronger than the effect of H2 Relaxin
- dose response of normalized cell index (LGR7 (RXFP1)): clear dose dependent activation
- affinity to LGR7 compared with other ligands (LGR7 (RXFP1)): lower than that of H2 Relaxin

Source: patent US8492329B2, “Bioactive peptides and methods of using same” (Compugen Ltd., priority 2007, dated 2013)
